Results: patent publication US20220296727A1, “Immunoconjugate” (DendroCyte BioTech Pty Ltd, priority 2019, published 2022)

Key:
HEL = assay: Cytotoxicity assay on HEL erythroleukemic cell line; type: cell-based
Experimental: (§1) Kinetic analysis was performed as above.
(§2) DCR-2 and an isotype control mAb were conjugated to a PBD dimer toxin, to assess potential cytotoxicity. The cytotoxicity of DCR-2-PBD and the isotype-PBD were tested against CD300f+ and CD300f− cell lines and the results are shown in FIG. 6 and Table 2.

HL-60 = assay: Cytotoxicity assay on HL-60 AML cell line; type: cell-based
Experimental: as §1, §2

U937 cells = assay: U937 subcutaneous xenograft model in NSG mice; type: in vivo, mouse; details: for tumour growth compared to isotype-PBD (300 ug/kg): intraperitoneal, once
Experimental: NOD.Cg-Prkdc^scld//2rg^tm1Wjl/SzJ (NSG) mice obtained from Australian BioResources were housed under specific pathogen free conditions. In the subcutaneous model, 2×10^6 U937 cells were injected under the skin on the right flank. Tumours were measured daily with electronic calipers. When the mean volume of the tumours was >100 mm^3, DCR-2-PBD, isotype-PBD or PBS was injected intraperitoneally once. […] Tumour volume was measured until >1000 mm^3 when mice were euthanised as required by the ethics protocol.
In the flank injection model 2×10^6 U937 cells were injected subcutaneously into NSG mice and the subsequent tumors were measured daily via caliper to calculate the volume. Mice were injected with 150 ug/kg of DCR-2ADC, Isotype-ADC or an equal volume of PBS on day 6. Mice were euthanized once the volumes reached 1000 mm^3. Survival and tumor size was recorded.
To determine the effect of DCR-2PBD in a mouse model based on U937 cells, mice were injected subcutaneously with cell line U937. After 6 days, mice were administered PBS, […] of CMRF-81PBD or […] of DCR-2PBD intraperitoneally and monitored for tumour growth. Tumour volume and survival of the mice were assessed and the results are shown in FIGS. 17 and 18, respectively.

HL-60 cell line = assay: Exposure time (kinetic) cytotoxicity on HL-60; type: cell-based
Experimental: as §1
The exposure time required for DCR-2-PBD to cause cytotoxicity on the HL-60 cell line was assessed and the results are shown in FIG. 10. The viability of HL-60 cells was reduced to less than 10% within 5 hours of exposure to DCR-2PBD. At 12 hours, greater than 98% of HL-60 proliferation was inhibited while at 24 and 96 hours inhibition was greater than 99%.

primary AML = assay: Colony forming unit assay, primary AML samples; type: cell-based, human
Experimental: CB cells, plated at 2×10^4 cells/well in semi-solid methylcellulose medium (MethoCult Classic, Stemcell Technologies) in a 24 well plate (Corning, N.Y., USA), were cultured at 37° C. in 5% CO2 for 14 days when colony forming units (CFU) were scored. DCR-2-PBD or isotype-PBD was added to each well for continuous exposure. Three CB samples were tested with duplicate wells performed in each experiment.
Two primary AML samples were tested: CRGH1 with low CD300f expression (MFI ratio of 2.6) and CRGH9 with a high CD300f expression (MFI 109.9) (FIG. 9).

dendritic cells = assay: Activation marker expression on dendritic cells after LPS; type: cell-based, human; details: HLA-DR, CD11c, CD80, CD83; 200 pmol
Experimental: The activity of DCR-2PBD on the upregulation of activation markers on DC was measured by incubating whole PBMC with DCR-2PBD or no antibody for […] before washing, followed by 12 hours of LPS stimulation. Control DC were not exposed to DCR-2PBD or LPS. Myeloid DC were gated out by excluding dead cells, Lin^+(CD3, CD20, CD19, CD56, CD14), then gating on HLA-DR^+ and CD11c^+ cells. The activation markers CD80 and CD83 were assessed via flow cytometry. The changes on activation were determined by comparing activated DC incubated with or without DCR-2PBD compared to inactivated DC.
(§3) PBMC were incubated in complete RPMI media with or without DCR-2-PBD (200 pmol). After 12 hours, washed cells were incubated for a further 12 hours with or without LPS then phenotyped for the expression of activation markers on DC populations. MoDC were derived from CD14+ monocytes as described previously (Fromm et al. J Leukoc Biol. 2020; 107(2):323-339). DCR-2-PBD or isotype-PBD (200 pmol) were added for 72 hours prior to enumeration of live cells by flow cytometry.

primary AML cells = assay: Primary AML xenograft in NSG mice; type: in vivo, mouse; details: single dose 300 ug/kg
Experimental: For primary AML xenografts, NSG mice were irradiated with 150cGy 24 hours before 8×10^6 AML cells from CRGH11 (sample 10 Table S1) were injected iv. Once engraftment was established (>1% human CD45 positive events in PB), mice were given DCR-2-PBD or isotype-PBD. Mice were euthanised 6 days later and the BM was harvested for enumeration and surface marker analysis by flow cytometry.

THP-1 = assay: Cytotoxicity assay on THP-1 AML cell line; type: cell-based
Experimental: as §1, §2

[1] = test system: CD300f- lymphoma cell line Mino; assay: Bystander killing assay; type: cell-based
Experimental: as §1
AML surface targets, including CD300f, can be heterogeneously expressed within AML cases and we considered bystander killing advantageous for an effective ADC. To determine whether DCR-2PBD effects cells not expressing CD300f, we investigated bystander killing by comparing the viability of the CD300f− lymphoma cell line Mino cultured on its own, with Mino cultured mixed with HL-60 in the presence of DCR-2-PBD in mixtures of 50% HL-60/50% Mino, and 25% HL-60/75% Mino. Cells were incubated for 96 hours with various concentrations of DCR-2PBD (FIG. 11). […] The reduction in the Mino cells when combined with HL-60 confirm the ability of DCR-2-PBD to generate bystander killing.

[2] = test system: monocyte-derived dendritic cells (MoDC); assay: Monocyte-derived dendritic cell (MoDC) toxicity assay; type: cell-based, human; details: 200 pmol, 72 hours
Experimental: as §3

B1: DCR-2PBD: anti-CD300f mAb DCR-2 conjugated to pyrrolobenzodiazepine dimer via Cathepsin B-cleavable linker MA-PEG4-VA-PBD; drug to antibody ratio 3.3 (conjugate)
VH: MESGGGLVQPGGPLKLSCAASGFGFSGSWMSWVRQAPGKGLEWIGQINPDSSTINYTPSLKDKFIISRDNAKNTLYLQINKVRSEDTALYYCARRGFFEGYSAWFAYW
VL: ILMTQTPKFLLVSAGDRVTITCKASQSVSNDVAWYQQKPGQSPSLLIYYASNRNTGVPDRFTGSGYETDFTFTISTVQAEDLAVYFCQQDYTSPWTFGGG
IC50 (HEL): 0.544 nM
IC50 (HL-60): 0.00544 nM
survival compared to isotype-PBD (300 ug/kg) (U937 cells; 150 ug/kg (p=0.0017)): significantly increased
tumour growth compared to isotype-PBD (300 ug/kg) (U937 cells; 150 ug/kg): delayed
survival compared to isotype-PBD (300 ug/kg) (U937 cells; 300 ug/kg (p=0.0017)): significantly increased
tumour growth compared to isotype-PBD (300 ug/kg) (U937 cells; 300 ug/kg): delayed
HL-60 proliferation inhibited (HL-60 cell line; 12 hours exposure): greater than 98%
HL-60 proliferation inhibition (HL-60 cell line; 24 hours exposure): greater than 99%
HL-60 proliferation inhibition (HL-60 cell line; 96 hours exposure): greater than 99%
time dependent cytotoxicity (HL-60 cell line; incubation up to 96 hours): rapid cytotoxicity
viability of HL-60 cells (HL-60 cell line; within 5 hours of exposure): less than 10%
toxicity against primary AML CFU (primary AML; CRGH1 (low CD300f expression), 196.1 pM): Significant toxicity
toxicity against primary AML CFU (primary AML; CRGH9 (high CD300f expression), all dose levels (P<0.001)): Significant toxicity
up-regulation of activation markers on dendritic cells after LPS (dendritic cells): does not prevent up-regulation of activation markers
AML cells as mean percentage of total cells in BM (primary AML cells): 12.32%
human AML cells in BM, mean total enumeration (primary AML cells): 0.37×10^6
IC50 (THP-1): 0.0294 nM
Mino viability vs Mino only control ([1]; 25% HL-60/75% Mino, 25 pM, 96 hours (p=0.0002)): significant reduction in viability
Mino viability vs Mino only control ([1]; 50% HL-60/50% Mino, 12.5 pM, 96 hours (p=0.0004)): significant reduction in viability
Mino viability vs Mino only control ([1]; 50% HL-60/50% Mino, 25 pM, 96 hours (p<0.0001)): significant reduction in viability
effect on MoDC survival [2]: little effect
